According to US20250346668A1 (GENOR BIOPHARMA, published 2025):
Where a chain is given by its changes, count along the chain named.

B1: mAb001 (antibody, V domains shown)
VH: QVQLQQSGPELVKPGASVKISCKASGYSFTNYYMHWVKQRPGQGLEWIGWTYPGNNNIKYNEKFKGKATLTADTSSSTAYMQLSSLTSEDSAVYYCARDGYGYYFFDYWGQGIILTVSS
VL: DIVMSQSPSSLAVSAGEKVTMSCKSSQSLLNNRTRKNYLAWYQQKPGQSPKLLIYWASTRESGVPDRFTGSGSGTDFTLTISSVQAEDLAIYYCKQSYTLRTFGGGTKLAIK
notes: Mouse hybridoma antibody; The variable regions are printed as CAb001 VH/VL
B2: mAb007 (antibody, V domains shown)
VH: QVQLQQSGPELVKPGASVKISCKASGSTFTDNYIHWVKQRPGQGLEWIGWIYPGSVNIKYNEKFKDKATLTADTSSTTAYMQLSSLSSEDSAIYYCARDISRYYFDYWGQGTTLTVSS
VL: B1 VL with K18R, S22N, N32S, I91V, Y98F, T99I
notes: Mouse hybridoma antibody; The variable regions are printed as CAb007 VH/VL
B3: mAb008 (antibody, V domains shown)
VH: QVQLQQSGAELARPGASVKMSCKTSGYTFTDYTVNWVKQRPGQGLEWIGYINPFNSYTKYNQKFKDKATLTADKSSSTAYMQLSSLTSEDSAVYFCANSVSTYWGQGTTLTVSS
VL: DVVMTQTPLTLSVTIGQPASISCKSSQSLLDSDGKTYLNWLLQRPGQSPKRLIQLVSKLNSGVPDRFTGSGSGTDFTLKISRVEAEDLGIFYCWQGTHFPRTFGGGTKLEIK
notes: Mouse hybridoma antibody
B4: mAb009 (antibody, V domains shown)
VH: B3 VH with A12T, T24A, V34I, N35H, N55S, S56D, M81I, S84N, F95Y, T102I
VL: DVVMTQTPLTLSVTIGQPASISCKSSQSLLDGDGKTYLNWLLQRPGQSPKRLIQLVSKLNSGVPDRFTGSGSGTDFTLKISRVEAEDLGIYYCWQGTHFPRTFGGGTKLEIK
notes: Mouse hybridoma antibody
B5: hAb001-21 (antibody, V domains shown)
VH: QVQLVQSGAEVKKPGASVKVSCKASGYSFTNYYMHWVRQAPGQRLEWIGWTYPGNNNIKYNEKFKGRVTITADTSASTAYMELSSLRSEDTAVYYCARDGYGYYFFDYWGQGTLVTVSS
VL: DIVMTQSPDSLAVSLGERATINCKSSQSLLNNRTRKNYLAWYQQKPGQPPKLLIYWASTRESGVPDRFSGSGSGTDFTLTISSLQAEDVAVYYCKQSYTLRTFGGGTKLEIK
notes: Humanized; constant regions not specified
B6: hAb001-22 (antibody, V domains shown)
VH: B5 VH
VL: B5 VL with S69T
notes: as for B5
B7: hAb001-23 (antibody, V domains shown)
VH: B5 VH
VL: B5 VL with I21M, N22S
notes: as for B5
B8: hAb001-26 (antibody, V domains shown)
VH: B5 VH with V68A
VL: B5 VL with S69T
notes: as for B5
B9: hAb007-30 (antibody, V domains shown)
VH: QVQLVQSGAEVKKPGASVKVSCKASGSTFTDNYIHWVKQAPGQRLEWIGWIYPGSVNIKYNEKFKDRATITADTSATTAYMELSSLRSEDTAVYYCARDISRYYFDYWGQGTTVTVSS
VL: B5 VL with N32S, S69T, Y98F, T99I
notes: as for B5
B10: hAb007-27 (antibody, V domains shown)
VH: B9 VH with K38R, T77S
VL: B5 VL with I21M, N32S, Y98F, T99I
notes: as for B5
B11: hAb007-26 (antibody, V domains shown)
VH: B9 VH with K38R, T77S
VL: B5 VL with N32S, S69T, Y98F, T99I
notes: as for B5
B12: hAb007-25 (antibody, V domains shown)
VH: B9 VH with K38R, T77S
VL: B5 VL with N32S, Y98F, T99I
notes: as for B5
B13: hAb007-31 (antibody, V domains shown)
VH: B9 VH
VL: B5 VL with I21M, N32S, Y98F, T99I
notes: as for B5
B14: hAb007-28 (antibody, V domains shown)
VH: B9 VH with K38R, T77S
VL: B5 VL with I21M, N32S, S69T, Y98F, T99I
notes: as for B5
B15: hAb007-32 (antibody, V domains shown)
VH: B9 VH
VL: B5 VL with I21M, N32S, S69T, Y98F, T99I
notes: as for B5
B16: hAb007-29 (antibody, V domains shown)
VH: B9 VH
VL: B5 VL with N32S, Y98F, T99I
notes: as for B5

Molecular target: T1, Cynomolgus monkey CD3e/g protein (cynomolgus monkey)
T1 construct: also called cyno CD3e/g; cCD3e/g
Experiment: ELISA, coated cyno CD3e/g
Experimental: (§1) Human CD3e/g protein, cynomolgus monkey CD3e/g protein (sequences shown in Table 1) or human CD3e/d protein was diluted with PBS to a final concentration of 5.0 μg/mL, and then added with 100 μl per well to a 96-well ELISA plate. The plate was sealed with plastic film and incubated overnight at 4° C. The plate was washed twice with plate washing solution [PBS+0.01% (v/v) Tween 20] on the next day, and was added with blocking solution [PBS+0.01% (v/v) Tween 20+1% (w/w) BSA] to block at room temperature for 2 hours. The blocking solution was poured off, and 100 μl per well of the purified CD3e/g antibody obtained in Example 2 was added. After incubation at 37° C. for 2 hours, the plate was washed 3 times with plate washing solution [PBS+0.01% (v/v) Tween20]. After adding HRP (horseradish peroxidase) labeled secondary antibody (purchased from Sigma), the plate was incubated at 37° C. for 2 hours, washed 3 times with plate washing solution [PBS+0.01% (v/v) Tween 20]. After adding 100 μl per well of TMB substrate and incubating at room temperature for 30 minutes, 100 μl per well of stop solution (1.0N HCl) was added. […] FIG. 2 and Table 3 show the binding activities of CD3e/g antibodies to hCD3e/g as detected by ELISA, and FIG. 3 and Table 4 show the binding activities of CD3e/g antibodies to cyno CD3e/g as detected by ELISA, wherein the IgG control is mouse IgG, and the data in the tables are OD_{450 nm} values. Among them, HIT3a was purchased from BD pharmigen with a catalog number 555336; SP34 was purchased from BD pharmigen with a catalog number 551916. OKT3 was purchased from Biolegend.

Binder | EC50 [nM] | OD450 nm at 0.000853 nM [OD450 nm] | OD450 nm at 0.0043 nM [OD450 nm] | OD450 nm at 0.02 nM [OD450 nm] | OD450 nm at 0.11 nM [OD450 nm] | OD450 nm at 0.53 nM [OD450 nm] | OD450 nm at 2.67 nM [OD450 nm] | OD450 nm at 13.3 nM [OD450 nm] | OD450 nm at 66.7 nM [OD450 nm]
B1 | 0.33 | 0.164 | 0.152 | 0.17 | 0.64 | 2.43 | 3.45 | 3.5 | 3.49
B2 | 0.26 | 0.0902 | 0.128 | 0.22 | 0.73 | 2.7 | 3.45 | 3.47 | 3.49
B3 | 0.44 | 0.0893 | 0.111 | 0.16 | 0.48 | 2.03 | 3.32 | 3.48 | 3.42
B4 | 0.32 | 0.0755 | 0.126 | 0.19 | 0.63 | 2.44 | 3.41 | 3.54 | 3.46

Molecular target: T2, human CD3e/d protein (Sinobiological, CAT: CT038-H2508H-B) (human, UniProt P07766 23-126; P04234 22-105)
T2 construct: Bought reagent; also called hCD3e/d
Experiment: ELISA, coated hCD3e/d
Experimental: as §1

Binder | EC50 [nM] | Emax (OD) | OD450 nm at 0.00128 nM [OD450 nm] | OD450 nm at 0.0064 nM [OD450 nm] | OD450 nm at 0.032 nM [OD450 nm] | OD450 nm at 0.16 nM [OD450 nm] | OD450 nm at 0.8 nM [OD450 nm] | OD450 nm at 4 nM [OD450 nm] | OD450 nm at 20 nM [OD450 nm] | OD450 nm at 100 nM [OD450 nm]
B1 | 0.022 | 3.05 | 0.27 | 0.72 | 1.83 | 2.72 | 2.96 | 2.99 | 3.05 | 3.02
B2 | 0.017 | 3.04 | 0.26 | 0.71 | 2.02 | 2.86 | 2.96 | 2.99 | 3.01 | 3.04
B3 | 0.041 | 3.05 | 0.16 | 0.53 | 1.31 | 2.48 | 2.88 | 2.96 | 3 | 3.05
B4 | 0.027 | 3.03 | 0.24 | 0.66 | 1.67 | 2.64 | 2.85 | 2.97 | 3.02 | 3.03

Molecular target: T3, human CD3e/g antigen (ACRO, catalog number CDG-H52W5) (human, UniProt P07766 23-126; P09693 23-116)
T3 construct: Bought reagent used as the Biacore analyte; also called hCD3e/g
Experiment: SPR (Biacore 8K), antibody captured via anti-human Fc
Experimental: The equilibrium dissociation constant of binding of CD3 antibodies to human CD3e/g antigen (purchased from ACRO, catalog number CDG-H52W5) was determined by kinetic binding method using Biacore 8K (GE) system. Through the capture method, the carboxylated dextran surface of CM5 chip was first activated with NHS (N-hydroxysuccinimide) and EDC (1-(3-dimethylaminopropyl)-3-ethylcarbodiimide hydrochloride), and then added with an anti-human IgG (Fc) antibody, the free amino group of which could form an amide bond with the activated carboxyl group, thereby being fixed on the chip surface. The anti-human IgG (Fc) antibody could bind to the Fc end of CD3 antibodies to capture the antibodies, and then a series of concentrations of antigen were added to obtain the binding and dissociation curves of antibody and antigen, and the corresponding kinetic constants were calculated by Biacore Evaluation software, as shown in the table below.

Binder | Kd [nM] | koff [s⁻¹] | kon [M⁻¹ s⁻¹]
B5 | 16.8 | 0.00669 | 398000
B6 | 20.4 | 0.00848 | 416000
B7 | 17.4 | 0.00696 | 401000
B8 | 17.4 | 0.00673 | 386000
B9 | 7.11 | 0.00316 | 445000
B10 | 10 | 0.00427 | 427000
B11 | 12 | 0.00565 | 470000
B12 | 9.24 | 0.0043 | 465000
B13 | 5.26 | 0.00225 | 427000
B14 | 11.8 | 0.00494 | 420000
B15 | 7.62 | 0.0032 | 419000
B16 | 9.85 | 0.00415 | 421000

Molecular target: T4, CD3 on Jurkat cells (human)
T4 construct: native, on the surface of Jurkat cells; The sheets print only 'Jurkat'; also called human CD3; TCR/CD3 complex on the human T cell line Jurkat
Experiment: FACS on Jurkat cells, Alexa 488 secondary antibody, MFI [a]
Experimental: Jurkat cells were amplificatorily cultured to 3×10⁶/ml in a T-175 cell culture flask, the culture medium was removed by centrifugation, and the cells were washed twice with PBS buffer (purchased from Invitrogen). After cell counting, the cells were diluted to 2×10⁶ cells/ml with PBS buffer, added with 1% BSA blocking solution, where the percentage was a mass percentage, incubated on ice for 30 minutes, and then washed twice with PBS buffer by centrifugation. The collected cells were suspended to 2×10⁶ cells/mL with FACS buffer (PBS+1% BSA, where the percentage was a mass percentage), and added to a 96-well FACS reaction plate at 100 μl per well, and samples of the purified CD3 antibodies obtained in Example 4 to be tested were added at 100 μl per well, and incubated at 4° C. for 2 hours. The plate was washed twice with FACS buffer by centrifugation, added with 100 μl per well of fluorescent (Alexa 488) labeled secondary antibody (purchased from Jackson), and incubated at 4° C. for 1 hour. After washing 3 times by centrifugation with FACS buffer, the cells were suspended with 100 μl of FACS buffer, and detected and analyzed using BD FACS LSRFortessa (purchased from BD). The results are shown in FIG. 5, where the IgG control is human IgG1 (hIgG).

Binder | EC50 (read off the curve) [nM]
B5 | ~0.3
B6 | ~0.3
B7 | ~0.3
B8 | ~0.3
